Test results: patent US20200339692A1 (JIANGSU HENGRUI MEDICINE, published 2020)

Columns and labels:
[1] = target: T1, monkey PD-L1 (Cat. #90251-C08H, Sino Biological) (monkey (cyno), UniProt G7PSE7 19-239); assay: SPR, Biacore X100
T1 construct: Bought recombinant protein used in the Biacore test; also called Monkey (cyno) PD-L1; Cyno PDL1
Procedure: (§1) According to the method in the manual of human anti-capture kit (Cat. A BR-1008-39, GE), the human anti-capture antibody was covalently coupled to biosensor chip CM5 (Cat. #BR-1000-12, GE) so that a certain amount of human PD-L1 (Cat. #10084-H08H, Sino Biological) monkey PD-L1 (Cat. #90251-C08H, Sino Biological), mouse PD-L1 (Cat. #50010-M08H, Sino Biological) were affinity captured. The affinity of PD-L1 antibody reacting with PD-L1 was measured with Biacore X100, GE instrument.

[2] = target: T2, human PD-L1 (Cat. #10084-H08H, Sino Biological) (human, UniProt Q9NZQ7 19-239); assay: SPR, Biacore X100
T2 construct: Bought recombinant protein used in the Biacore test; also called hPDL1; hPD-L1
Procedure: as §1

T2 sequence (Q9NZQ7 19-239 limits assumed): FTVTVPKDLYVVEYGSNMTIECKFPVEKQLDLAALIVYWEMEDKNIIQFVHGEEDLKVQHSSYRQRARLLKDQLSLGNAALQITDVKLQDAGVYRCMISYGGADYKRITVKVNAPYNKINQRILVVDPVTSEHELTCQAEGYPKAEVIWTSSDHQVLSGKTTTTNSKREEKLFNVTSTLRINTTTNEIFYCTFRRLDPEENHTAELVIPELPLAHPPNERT
T1 sequence (G7PSE7 entry or part of it C08H C08H): as the sequence (Q9NZQ7 19-239 limits assumed) above, with A33T, A34S, S62N, R68Q, Q82R, F173L, T185A, T192I, H215L counted along it

B1: H21L68 (antibody, human IgG1, kappa, V domains shown)
VH: QVQLVQSGAEVKKPGASVKVSCKASGYTFTDKWMMWVRQAPGQGLEWMGRITPSSGFAMYNEKFKNRVTMTRDTSTSTVYMELSSLRSEDTAVYYCARGGSSYDYFDYWGQGTTVTVSS
VL: DIVLTQSPASLAVSPGQRATITCRASESVSIHGTHLMHWYQQKPGQPPKLLIYVASNVWSGVPARFSGSGSGTDFTLTINPVEAEDTANYYCQQSFEDPLTFGQGTKLEIKR
notes: also called 24D5 H21 and 24D5 L68
**Q.** Which results are given for B1?
**A.** binding result [1]: no binding; binding result [2]: no binding
